Source: publication PMC9599597

Target: F5_SusD-like protein (uncultured human gut Bacteroides strain)
Assay: SEC; Superdex 200 16/600 column; 20 mM Tris-HCl, 150 mM NaCl, pH 7.5

stoichiometry N: 2
Substance: F5_SusD-like protein (natural protein)
